Laboratory results taken from patent publication US20220119448A1 (ZHEJIANG DOER BIOLOGICS, published 2022).

Key:
[1] = biological target: GLP-2R (GLP-2 receptor) on GLP-2R/Luc-CHO cells; test: cell-based or functional assay
VEGF [2] = biological target: T1, VEGF (UniProt P15692-4 27-191, limits assumed, biotin-labelled (Sulfo-NHS biotin, molar ratio 2:1) in the BLI assay; unlabelled in the competition ELISA); test: competition ELISA: sample pre-mixed with VEGF, mixture put on a plate coated with VEGF Receptor 2 (KDR), bound VEGF detected with mouse anti-human VEGF antibody, OD450; blocked ligand-receptor pair VEGF/KDR
T1 construct: also called biotin-labeled VEGF
T1 sequence (P15692 other isoform, or with tags, fused parts or gaps limits assumed): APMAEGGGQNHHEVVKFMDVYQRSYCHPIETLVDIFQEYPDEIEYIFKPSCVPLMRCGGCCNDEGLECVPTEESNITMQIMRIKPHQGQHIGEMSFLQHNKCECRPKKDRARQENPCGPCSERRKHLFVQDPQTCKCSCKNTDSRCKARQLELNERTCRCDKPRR
Procedure: (§1) The plate was then blocked with 1% BSA/TBS and placed at 37° C. for 1 h; 1% BSA/TBS was added to the plate, 200 μL per well, and placed at 37° C. for 2 h.
(§2) Then, the stock solutions were diluted by 3 times to a total of 11 concentrations. […] The KDR-coated ELISA plate was washed twice and pat-dried. The mixture was successively transferred to the ELISA plate and placed at 37° C. for 1 h, then the plate was washed for 6 times. […] The plate was placed at 37° C. for 1 h and washed for 6 times. Then, goat anti-rat secondary antibody (Pierce, 31432, QA1969921) diluted at 1:1000 was added, 50 μL per well. The plate was placed at 37° C. for 1 h and washed for 6 times. Color developing solution was added after reaction, and the plated was incubated at 37° C. for 15 min. Stop buffer was added to terminate the color reaction. OD450 values were read on a microplate reader.

VEGF [3] = biological target: T1, VEGF; test: competition ELISA: inhibition of VEGF binding to plate-coated VEGF Receptor 2 (KDR)
Procedure: as §1, §2

VEGF [4] = biological target: T1, VEGF; test: BLI (Octet-QK), biotin-VEGF on SA probe; repeat 1
Text: (§3) The binding affinities of the fusion proteins were detected using BLI (Bio-layer inteferometry, ForteBio). […] Excess biotin not involved in labeling was removed by dialysis. […] The buffer used in the experiment was PBS (containing 0.1% Tween-20). […] Based on the program settings, the fusion proteins were bound, and then dissociated in PBST solution, to obtain the experimental curves. According to the result analysis software of Octet-QK, local full was used to fit the curves of the experimental results, then kon, kdis and Kd were determined.

VEGF [5] = biological target: T1, VEGF; test: BLI (Octet-QK), biotin-VEGF on SA probe; repeat 2
Text: as §3

VEGF [6] = biological target: T1, VEGF; test: BLI (Octet-QK), biotin-VEGF on SA probe; repeat 3
Text: as §3

VEGF [7] = biological target: T1, VEGF; test: BLI (Octet-QK), biotin-VEGF on SA probe; average of 3 repeats (STD 0.05)
Text: as §3

VEGF [8] = biological target: T1, VEGF; test: BLI (Octet-QK), biotin-VEGF on SA probe; average of 3 repeats (STD 0.10)
Text: as §3

B1: GLP2G-PU98x43 (ligand)
chain: HGDGSFSDEMNTILDNLAARDFINWLIQTKITDAEPAAPAPAEPAAPAPEAPAAEPAAPAPAEPAAPAPEAPAAEPAAPAPAEPAAPAPEAPAAEPAAPAPAEPAAPAPEAPAAEPAAPAPAEPAAPAPEAPAAEPAAPAPAEPAAPAPEAPAAEPAAPAPAEPAAPAPEAPAAEPAAPAPAEPAAPAPEAPAAEPAAPAPAEPAAPAPEAPAAEPAAPAPAEPAAPAPEAPAAEPAAPAPAEPAAPAPEAPAAEPAAPAPAEPAAPAPEAPAAEPAAPAPAEPAAPAPEAPAAEPAAPAPAEPAAPAPEAPAAEPAAPAPAEPAAPAPEAPAAEPAAPAPAEPAAPAPEAPAAEPAAPAPAEPAAPAPEAPAAEPAAPAPAEPAAPAPEAPAAEPAAPAPAEPAAPAPEAPAAEPAAPAPAEPAAPAPEAPAAEPAAPAPAEPAAPAPEAPAAEPAAPAPAEPAAPAPEAPAAEPAAPAPAEPAAPAPEAPAAEPAAPAPAEPAAPAPEAPAAEPAAPAPAEPAAPAPEAPAAEPAAPAPAEPAAPAPEAPAAEPAAPAPAEPAAPAPEAPAAEPAAPAPAEPAAPAPEAPAAEPAAPAPAEPAAPAPEAPAAEPAAPAPAEPAAPAPEAPAAEPAAPAPAEPAAPAPEAPAAEPAAPAPAEPAAPAPEAPAAEPAAPAPAEPAAPAPEAPAAEPAAPAPAEPAAPAPEAPAAEPAAPAPAEPAAPAPEAPAAEPAAPAPAEPAAPAPEAPAAEPAAPAPAEPAAPAPEAPAAEPAAPAPAEPAAPAPEAPAAEPAAPAPAEPAAPAPEAPAAEPAAPAPAEPAAPAPEAPAAEPAAPAPAEPAAPAPEAPAAEPAAPAPAEPAAPAPEAPAAEPAAPAPAEPAAPAPEAPA
In the case of B1, the “in vitro cytological activity, EC50 (luciferase reporter, GLP-2R/Luc-CHO cells)” value (“in vitro cytological activity, EC50” below) [1] is reported as 311 nM.

B2: PU73x49-ARVEGF (designed binder)
chain: APAEAPAAAEEAPPAEPAPEAPAEAPAAAEEAPPAEPAPEAPAEAPAAAEEAPPAEPAPEAPAEAPAAAEEAPPAEPAPEAPAEAPAAAEEAPPAEPAPEAPAEAPAAAEEAPPAEPAPEAPAEAPAAAEEAPPAEPAPEAPAEAPAAAEEAPPAEPAPEAPAEAPAAAEEAPPAEPAPEAPAEAPAAAEEAPPAEPAPEAPAEAPAAAEEAPPAEPAPEAPAEAPAAAEEAPPAEPAPEAPAEAPAAAEEAPPAEPAPEAPAEAPAAAEEAPPAEPAPEAPAEAPAAAEEAPPAEPAPEAPAEAPAAAEEAPPAEPAPEAPAEAPAAAEEAPPAEPAPEAPAEAPAAAEEAPPAEPAPEAPAEAPAAAEEAPPAEPAPEAPAEAPAAAEEAPPAEPAPEAPAEAPAAAEEAPPAEPAPEAPAEAPAAAEEAPPAEPAPEAPAEAPAAAEEAPPAEPAPEAPAEAPAAAEEAPPAEPAPEAPAEAPAAAEEAPPAEPAPEAPAEAPAAAEEAPPAEPAPEAPAEAPAAAEEAPPAEPAPEAPAEAPAAAEEAPPAEPAPEAPAEAPAAAEEAPPAEPAPEAPAEAPAAAEEAPPAEPAPEAPAEAPAAAEEAPPAEPAPEAPAEAPAAAEEAPPAEPAPEAPAEAPAAAEEAPPAEPAPEAPAEAPAAAEEAPPAEPAPEAPAEAPAAAEEAPPAEPAPEAPAEAPAAAEEAPPAEPAPEAPAEAPAAAEEAPPAEPAPEAPAEAPAAAEEAPPAEPAPEAPAEAPAAAEEAPPAEPAPEAPAEAPAAAEEAPPAEPAPEAPAEAPAAAEEAPPAEPAPEAPAEAPAAAEEAPPAEPAPEAPAEAPAAAEEAPPAEPAPEAPAEAPAAAEEAPPAEPAPEAPAEAPAAAEEAPPAEPAPEAPAEAPAAAEEAPPAEPAPEAPAEAPAAAEEAPPAEPAPEAPAEAPAAAEEAPPAEPAPEAPAEAPAAAEEAPPAEPAPEGSDLDKKLLEAARAGQDDEVRILMANGADVNARDSTGWTPLHLAAPWGHPEIVEVLLKNGADVNAADFQGWTPLHLAAAVGHLEIVEVLLKYGADVNAQDKFGKTAFDISIDNGNEDLAEILQKAA
notes: also called PU-ARVEGF fusion protein
For B2, the “IC50 (read off the curve)” value (VEGF [2]) was ~0.3 nM, the IC50 (VEGF [3]) was 0.55 nM and the Kd (VEGF [4]) was 0.62 nM. For the same binder, the Kd (VEGF [5]) was 0.61 nM, the Kd (VEGF [6]) was 0.7 nM and the Kd (VEGF [7]) was 0.64 nM.

B3: ankyrin repeat protein binding to VEGF (ARVEGF) (designed binder)
chain: GSDLDKKLLEAARAGQDDEVRILMANGADVNARDSTGWTPLHLAAPWGHPEIVEVLLKNGADVNAADFQGWTPLHLAAAVGHLEIVEVLLKYGADVNAQDKFGKTAFDISIDNGNEDLAEILQKAA
notes: Its preparation and any tag are not described
In the case of B3, the “IC50 (read off the curve)” value (VEGF [2]) is reported as ~0.3 nM, the IC50 (VEGF [3]) is reported as 0.65 nM and the Kd (VEGF [4]) is reported as 0.58 nM. For the same binder, the Kd (VEGF [8]) was 0.68 nM, the Kd (VEGF [5]) was 0.69 nM and the Kd (VEGF [6]) was 0.77 nM.

B4: GLP2G-PU141x47 (ligand)
chain: HGDGSFSDEMNTILDNLAARDFINWLIQTKITDAPAAPPEEAAAEPPAAEAAPAPAAPPEEAAAEPPAAEAAPAPAAPPEEAAAEPPAAEAAPAPAAPPEEAAAEPPAAEAAPAPAAPPEEAAAEPPAAEAAPAPAAPPEEAAAEPPAAEAAPAPAAPPEEAAAEPPAAEAAPAPAAPPEEAAAEPPAAEAAPAPAAPPEEAAAEPPAAEAAPAPAAPPEEAAAEPPAAEAAPAPAAPPEEAAAEPPAAEAAPAPAAPPEEAAAEPPAAEAAPAPAAPPEEAAAEPPAAEAAPAPAAPPEEAAAEPPAAEAAPAPAAPPEEAAAEPPAAEAAPAPAAPPEEAAAEPPAAEAAPAPAAPPEEAAAEPPAAEAAPAPAAPPEEAAAEPPAAEAAPAPAAPPEEAAAEPPAAEAAPAPAAPPEEAAAEPPAAEAAPAPAAPPEEAAAEPPAAEAAPAPAAPPEEAAAEPPAAEAAPAPAAPPEEAAAEPPAAEAAPAPAAPPEEAAAEPPAAEAAPAPAAPPEEAAAEPPAAEAAPAPAAPPEEAAAEPPAAEAAPAPAAPPEEAAAEPPAAEAAPAPAAPPEEAAAEPPAAEAAPAPAAPPEEAAAEPPAAEAAPAPAAPPEEAAAEPPAAEAAPAPAAPPEEAAAEPPAAEAAPAPAAPPEEAAAEPPAAEAAPAPAAPPEEAAAEPPAAEAAPAPAAPPEEAAAEPPAAEAAPAPAAPPEEAAAEPPAAEAAPAPAAPPEEAAAEPPAAEAAPAPAAPPEEAAAEPPAAEAAPAPAAPPEEAAAEPPAAEAAPAPAAPPEEAAAEPPAAEAAPAPAAPPEEAAAEPPAAEAAPAPAAPPEEAAAEPPAAEAAPAPAAPPEEAAAEPPAAEAAPAPAAPPEEAAAEPPAAEAAPAPAAPPEEAAAEPPAAEAAPAPAAPPEEAAAEPPAAEAAPAPAAPPEEAAAEPPAAEAAPAPAAPPEEAAAEPPAAEAAP
For B4, the “in vitro cytological activity, EC50” value [1] was 299 nM.

B5: GLP2G-PU69x45 (ligand)
chain: HGDGSFSDEMNTILDNLAARDFINWLIQTKITDAPPEAPEAPEAAPAAPEPAEAPPEAPEAPEAAPAAPEPAEAPPEAPEAPEAAPAAPEPAEAPPEAPEAPEAAPAAPEPAEAPPEAPEAPEAAPAAPEPAEAPPEAPEAPEAAPAAPEPAEAPPEAPEAPEAAPAAPEPAEAPPEAPEAPEAAPAAPEPAEAPPEAPEAPEAAPAAPEPAEAPPEAPEAPEAAPAAPEPAEAPPEAPEAPEAAPAAPEPAEAPPEAPEAPEAAPAAPEPAEAPPEAPEAPEAAPAAPEPAEAPPEAPEAPEAAPAAPEPAEAPPEAPEAPEAAPAAPEPAEAPPEAPEAPEAAPAAPEPAEAPPEAPEAPEAAPAAPEPAEAPPEAPEAPEAAPAAPEPAEAPPEAPEAPEAAPAAPEPAEAPPEAPEAPEAAPAAPEPAEAPPEAPEAPEAAPAAPEPAEAPPEAPEAPEAAPAAPEPAEAPPEAPEAPEAAPAAPEPAEAPPEAPEAPEAAPAAPEPAEAPPEAPEAPEAAPAAPEPAEAPPEAPEAPEAAPAAPEPAEAPPEAPEAPEAAPAAPEPAEAPPEAPEAPEAAPAAPEPAEAPPEAPEAPEAAPAAPEPAEAPPEAPEAPEAAPAAPEPAEAPPEAPEAPEAAPAAPEPAEAPPEAPEAPEAAPAAPEPAEAPPEAPEAPEAAPAAPEPAEAPPEAPEAPEAAPAAPEPAEAPPEAPEAPEAAPAAPEPAEAPPEAPEAPEAAPAAPEPAEAPPEAPEAPEAAPAAPEPAEAPPEAPEAPEAAPAAPEPAEAPPEAPEAPEAAPAAPEPAEAPPEAPEAPEAAPAAPEPAEAPPEAPEAPEAAPAAPEPAEAPPEAPEAPEAAPAAPEPAEAPPEAPEAPEAAPAAPEPAEAPPEAPEAPEAAPAAPEPAEAPPEAPEAPEAAPAAPEPAE
B5 was tested, and the “in vitro cytological activity, EC50” value [1] was 279 nM.
